Patent US20200079850A1 (SUTRO BIOPHARMA, published 2020)

T1: human LAG3 expressed on the cell surface (CHO-LAG3, 293T-LAG3 cells) (human, UniProt P18627 23-525)
T1 construct: Stably transfected CHO or HEK293T cells; also called Human LAG3 (CHO); Human LAG3 (293T)
T1 sequence: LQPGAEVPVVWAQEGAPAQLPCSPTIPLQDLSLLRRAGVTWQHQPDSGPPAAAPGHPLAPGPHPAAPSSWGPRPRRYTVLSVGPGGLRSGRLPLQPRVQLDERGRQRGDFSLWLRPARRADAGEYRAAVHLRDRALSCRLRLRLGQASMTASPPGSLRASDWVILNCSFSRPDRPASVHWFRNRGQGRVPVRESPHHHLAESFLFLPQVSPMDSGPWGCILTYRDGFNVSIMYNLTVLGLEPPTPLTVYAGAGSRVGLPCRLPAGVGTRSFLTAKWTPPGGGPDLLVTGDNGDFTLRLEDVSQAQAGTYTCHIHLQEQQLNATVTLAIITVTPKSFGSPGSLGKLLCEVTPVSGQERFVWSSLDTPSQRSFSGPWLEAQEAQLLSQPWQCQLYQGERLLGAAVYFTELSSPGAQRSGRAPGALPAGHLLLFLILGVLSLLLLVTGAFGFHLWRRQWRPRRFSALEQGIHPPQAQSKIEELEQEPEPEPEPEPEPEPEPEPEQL


Biological target: T1, human LAG3 expressed on the cell …
Experiment: flow cytometry cell binding on CHO cells expressing human LAG3; PE anti-human IgG detection; one site-specific binding with Hill slope fit
Description: CHO-k cells stably expressing PD-1 or LAG3 (human or cynomolgus) on the cell surface were used to assess binding affinity of anti-PD-1/LAG3 bispecific antibody constructs. Cells were seeded at 100,000 cells/well in 100 μL of FACS buffer (1×PBS, 0.5% BSA, 0.1% sodium azide) in 96-well polypropylene plates. The cells were centrifuged at 1.5K rpm and resuspended with test antibodies diluted in FACS buffer and incubated on ice for 1 hour. The cells were washed twice with FACS buffer and incubated on ice for 30 mins with R-Phycoerythrin-AffiniPure F(ab′)2 Fragment Goat Anti-Human IgG (H+L) secondary detection antibody (1:200 dilution, Jackson ImmunoResearch Laboratories, West Grove, Pa.). The cells were washed twice with FACS buffer, fixed in 4% paraformaldehyde in PBS (Santa Cruz Biotechnology; Dallas, Tex.) for 20 mins on ice in the dark, washed twice with FACS buffer, and analyzed using the BD LSR II Flow Cytometer (BD Biosciences; San Jose, Calif.). Data were analyzed using FlowJo (FlowJo, LLC; Ashland, Oreg.) to determine mean fluorescence intensities. Binding constants were calculated using the statistical software, GraphPad Prism (GraphPad Software; La Jolla, Calif.) using the nonlinear regression equation, one site—specific binding with Hill slope. The secondary antibody by itself was used as a control.

Row | Bmax | Kd | Binder
1 | 1020 MFI | 0.5 nM | PD-1/LAG3 Bi-specific Construct C: aPD1 1353-G10 Vk1-39LC scFvFc zwB V262E; aLAG3 1449-G09.2 Fab zwA V262E (bispecific antibody, human IgG1, kappa, The N-terminal Met is not included) scFv: EVQLVQSGAEVKKPGASVKVSCKASGYRFPHYGISWVRQAPGQGLEWMGWISAYNGNTNYAQKLQGRVTMTTDTSTNTAYMELRSLRSDDTAVYYCARDVDYGTGSGYWGQGTLVTVSSGGGGSGGGGSGGGGSDIQLTQSPSSLSASVGDRVTITCSGDALPKQYAYWYQQKPGKAPKLLIYKDTERPSGVPSRFSGSSSGTKVTLTISSLQPEDFATYYCQSADNSITYRVFGGGTKVEIKAAGSDQEPKSSDKTHTCPPCPAPELLGGPSVFLFPPKPKDTLMISRTPEVTCEVVDVSHEDPEVKFNWYVDGVEVHNAKTKPREEQYNSTYRVVSVLTVLHQDWLNGKEYKCKVSNKALPAPIEKTISKAKGQPREPQVYVLPPSREEMTKNQVSLLCLVKGFYPSDIAVEWESNGQPENNYLTWPPVLDSDGSFFLYSKLTVDKSRWQQGNVFSCSVMHEALHNHYTQKSLSLSPGK heavy: not shown light: not shown
2 | 975 MFI | 0.4 nM | PD-1/LAG3 Bi-specific Construct B: aPD1 1353-G10 scFvFc zwB R28T/P30D/H31S V262E; aLAG3 1449-G09.2 Fab zwA V262E (bispecific antibody, human IgG1, kappa, The N-terminal Met is not included) scFv: EVQLVQSGAEVKKPGASVKVSCKASGYTFDSYGISWVRQAPGQGLEWMGWISAYNGNTNYAQKLQGRVTMTTDTSTNTAYMELRSLRSDDTAVYYCARDVDYGTGSGYWGQGTLVTVSSGGGGSGGGGSGGGGSSYELTQPPSVSVSPGQTARITCSGDALPKQYAYWYQQKPGQAPVMVIYKDTERPSGIPERFSGSSSGTKVTLTISGVQAEDEADYYCQSADNSITYRVFGGGTKVTVLAAGSDQEPKSSDKTHTCPPCPAPELLGGPSVFLFPPKPKDTLMISRTPEVTCEVVDVSHEDPEVKFNWYVDGVEVHNAKTKPREEQYNSTYRVVSVLTVLHQDWLNGKEYKCKVSNKALPAPIEKTISKAKGQPREPQVYVLPPSREEMTKNQVSLLCLVKGFYPSDIAVEWESNGQPENNYLTWPPVLDSDGSFFLYSKLTVDKSRWQQGNVFSCSVMHEALHNHYTQKSLSLSPGK heavy: not shown light: not shown
